Results on one molecule are retold here after paper PMC7386476.

Data set [1] addresses nsp12 (RNA-dependent RNA polymerase);nsp7;nsp8;nsp13 helicase (SARS-CoV-2;SARS-CoV-2;SARS-CoV-2;SARS-Co …, UniProt P0DTD1;P0DTD1;P0DTD1;P0DTD1 4393-5324;3860-3942;3943-4140;5325-5925, |||). Put plainly: EMSA.
In data set [2] the target is nsp12 (RNA-dependent RNA polymerase);nsp7;nsp8 (SARS-CoV-2;SARS-CoV-2;SARS-CoV-2, UniProt P0DTD1;P0DTD1;P0DTD1 4393-5324;3860-3942;3943-4140, ||). In words: EMSA.

B1: RNA scaffold (template-product, cryo-EM primer and template, Figure 1A) (dsRNA)
RNA 1: CUAUCCCCAUGUGAUUUUAAUAGCUUCUUAGGAGAAUGACGUAGCAUGCUACGCG
RNA 2: CGCGUAGCAUGCUACGUCAUUCUCCUAAGAAGCUA
With B1, the binding result in data set [1] and in data set [2] was “binds” in each case.
